From patent US20190016826A1 (Genentech, published 2019)
Changes are numbered by the printed parent chain.

B1: IgG94 (anti-HtrA1 antibody YW505.94, IgG format) (antibody, V domains shown)
VH: EVQLVESGGGLVQPGGSLRLSCAASGFNISGYYIHWVRQAPGKGLEWVGWIDPYGGDTNYADSVKGRFTISADTSKNTAYLQMNSLRAEDTAVYYCARGTFLTSWGHYFDYWGQGT
VL: DIQMTQSPSSLSASVGDRVTITCRASQDVSTAVAWYQQKPGKAPKLLIYSASFLYSGVPSRFSGSGSGTDFTLTISSLQPEDFATYYCQQSYTTPPTFGQGTKVEIKR
notes: The VH as printed ends at WGQGT; also called antibody 94; Ab94
B2: YW505.94a.28 IgG (antibody, V domains shown)
VH: B1 VH with N28S
VL: B1 VL with D28S, V29I, S30N, A32Y, V33L, Y92D, T93D
B3: YW505.94a Fab (Fab, V domains shown)
VH: B1 VH with N28S
VL: B1 VL
notes: Tested as Fab
B4: YW505.94a.54 Fab (Fab, V domains shown)
VH: B1 VH with N28S
VL: B1 VL with D28V, S30G, T31N, A32Y, V33L, Y92D, T93D, T94H
B5: YW505.94a.28 Fab (Fab, V domains shown)
VH: B1 VH with N28S
VL: B1 VL with D28S, V29I, S30N, A32Y, V33L, Y92D, T93D

Assays:
HuHtrA1_PD(H220A) = molecular target: T1, HuHtrA1_PD(H220A) (human, UniProt F1N152 168-386 (bovine entry)); experiment: binding ELISA, plate coated with mutant at 1 ug/ml, 20 min incubation
T1 construct: Alanine mutant of HuHtrA1_PD; also called HuHtrA1 mutant H220A; not shown: thrombin cleavage site
T1 chain: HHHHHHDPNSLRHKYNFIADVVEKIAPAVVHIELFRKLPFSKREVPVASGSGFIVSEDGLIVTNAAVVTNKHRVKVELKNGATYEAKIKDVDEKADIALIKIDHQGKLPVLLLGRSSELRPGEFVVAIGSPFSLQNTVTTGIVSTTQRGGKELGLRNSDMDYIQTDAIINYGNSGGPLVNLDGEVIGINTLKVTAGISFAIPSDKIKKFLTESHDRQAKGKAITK

HuHtrA1_PD(E247A) = molecular target: T2, HuHtrA1_PD(E247A) (human, UniProt F1N152 168-386 (bovine entry)); experiment: as above
T2 construct: Alanine mutant of HuHtrA1_PD; also called HuHtrA1 mutant E247A; not shown: thrombin cleavage site
T2 chain: T1 chain with A66H, E93A

HuHtrA1_PD(K243A) = molecular target: T3, HuHtrA1_PD(K243A) (human, UniProt F1N152 168-386 (bovine entry)); experiment: as above
T3 construct: Alanine mutant of HuHtrA1_PD; also called HuHtrA1 mutant K243A; not shown: thrombin cleavage site
T3 chain: T1 chain with A66H, K89A

HuHtrA1_PD(V201A) = molecular target: T4, HuHtrA1_PD(V201A) (human, UniProt F1N152 168-386 (bovine entry)); experiment: as above
T4 construct: Alanine mutant of HuHtrA1_PD; also called HuHtrA1 mutant V201A; not shown: thrombin cleavage site
T4 chain: T1 chain with V47A, A66H

HuHtrA1_PD(T223A) = molecular target: T5, HuHtrA1_PD(T223A) (human, UniProt F1N152 168-386 (bovine entry)); experiment: as above
T5 construct: Alanine mutant of HuHtrA1_PD; also called HuHtrA1 mutant T223A; not shown: thrombin cleavage site
T5 chain: T1 chain with A66H, T69A

HuHtrA1_PD(K225A) = molecular target: T6, HuHtrA1_PD(K225A) (human, UniProt F1N152 168-386 (bovine entry)); experiment: as above
T6 construct: Alanine mutant of HuHtrA1_PD; also called HuHtrA1 mutant K225A; not shown: thrombin cleavage site
T6 chain: T1 chain with A66H, K71A

[1] = molecular target: T7, Full length human HtrA1 (HuHtrA1) (Q23-P480), N-terminal His6 tag (human, UniProt Q92743 23-480); experiment: cell-based or functional assay
T7 sequence (Q92743 other isoform, or with tags, fused parts or gaps): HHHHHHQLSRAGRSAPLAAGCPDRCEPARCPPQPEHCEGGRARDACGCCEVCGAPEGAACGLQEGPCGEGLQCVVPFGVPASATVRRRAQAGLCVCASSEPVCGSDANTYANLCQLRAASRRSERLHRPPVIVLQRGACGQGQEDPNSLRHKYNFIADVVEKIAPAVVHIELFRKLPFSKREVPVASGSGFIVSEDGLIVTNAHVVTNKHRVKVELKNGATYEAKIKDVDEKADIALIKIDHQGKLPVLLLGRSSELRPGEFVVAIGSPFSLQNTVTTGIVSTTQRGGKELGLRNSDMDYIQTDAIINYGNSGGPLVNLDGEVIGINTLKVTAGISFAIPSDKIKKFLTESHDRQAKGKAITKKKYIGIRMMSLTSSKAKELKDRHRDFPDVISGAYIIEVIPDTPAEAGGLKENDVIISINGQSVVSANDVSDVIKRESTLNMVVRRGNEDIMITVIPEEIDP

[2] = molecular target: T8, Full length murine HtrA1 (MuHtrA1) (P24-P480), N-terminal His6 tag (murine, UniProt Q9R118 24-480); experiment: cell-based or functional assay
T8 sequence (Q9R118 other isoform, or with tags, fused parts or gaps): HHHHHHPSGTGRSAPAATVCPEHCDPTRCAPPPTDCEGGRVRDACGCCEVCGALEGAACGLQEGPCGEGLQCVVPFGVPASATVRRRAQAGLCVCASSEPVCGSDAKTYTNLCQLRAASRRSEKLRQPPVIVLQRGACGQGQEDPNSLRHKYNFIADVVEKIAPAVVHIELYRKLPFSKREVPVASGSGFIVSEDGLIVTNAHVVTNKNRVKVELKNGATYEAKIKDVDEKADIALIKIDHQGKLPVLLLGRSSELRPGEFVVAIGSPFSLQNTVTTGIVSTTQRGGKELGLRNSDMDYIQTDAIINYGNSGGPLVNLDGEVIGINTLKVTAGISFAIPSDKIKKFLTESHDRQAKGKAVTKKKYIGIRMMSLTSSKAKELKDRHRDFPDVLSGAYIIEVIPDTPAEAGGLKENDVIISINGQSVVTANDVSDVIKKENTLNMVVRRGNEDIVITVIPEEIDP

[3] = molecular target: T7, Full length human HtrA1 (HuHtrA1) …; experiment: cell-based or functional assay; remark: listed apart in the source
[4] = molecular target: Protease domain of human HtrA1 (HuHtrA1_PD), residues D161-K379 (human, UniProt F1N152 168-386 (bovine entry)); experiment: cell-based or functional assay
Chain of Protease domain of human HtrA1 (HuHtrA1_PD), residues D161-K379 (F1N152 other isoform, or with tags, fused parts or gaps): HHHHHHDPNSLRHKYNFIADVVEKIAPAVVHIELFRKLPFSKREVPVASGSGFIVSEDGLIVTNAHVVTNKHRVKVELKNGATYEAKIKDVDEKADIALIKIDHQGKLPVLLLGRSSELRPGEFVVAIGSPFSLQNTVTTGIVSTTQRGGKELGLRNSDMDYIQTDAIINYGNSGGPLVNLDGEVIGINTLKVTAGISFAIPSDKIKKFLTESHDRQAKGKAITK

[5] = molecular target: T8, Full length murine HtrA1 (MuHtrA1) …; experiment: SPR (BIAcore T100), single-cycle kinetics, biotinylated murine HtrA1 captured on streptavidin, Fab in solution
Description: (§1) To determine the binding affinity of HtrA1 antibodies by single cycle kinetics, Surface Plasmon Resonance (SRP) measurement with a BIAcore™ T100 instrument was used. Briefly, a series S sensor chip CM5 was activated with EDC and NHS reagents according to the supplier's instructions, and streptavidin (Pierce) was coupled to achieve approximately 2000 response units (RU), followed by blocking un-reacted groups with 1M ethanolamine.
(§2) For kinetics measurements, biotinylated human or murine HtrA1 was first injected at 10 ul/min flow rate to capture approximately 100 RU at 3 different flow cells (FC), except for FC1 (reference), and then 5-fold serial dilutions of anti-HtrA1 Fab in HBS-P buffer (0.01M HEPES pH 7.4, 0.15M NaCl, 0.005% surfactant P20) from low (0.48 nM) to high (300 nM) [5 points] were injected (flow rate: 30 μl/min) one after the other in the same cycle with no regeneration between injections. The sensorgram was recorded and subject to reference and buffer subtraction before evaluation by BIAcore™ T100 Evaluation Software (version 2.0). Association rates (km) and dissociation rates (koff) were calculated using a simple one-to-one Langmuir binding model. The equilibrium dissociation constant (Kd) was calculated as the ratio koff/kₒₙ.

[6] = molecular target: T7, Full length human HtrA1 (HuHtrA1) …; experiment: phage competition ELISA: Fab-phage pre-incubated with serially diluted soluble HuHtrA1 (x axis), unbound phage captured on HuHtrA1-coated plate
Method: (§3) MAXISORP™ microtiter plates were coated with HuHtrA1 at 2 μg/ml in PBS for 2 hr at RT and then blocked with PBST buffer for another hour at RT. Purified phage from culture supernatants were incubated with serially diluted HuHtrA1 or MuHtrA1 in PBST buffer in a tissue-culture microtiter plate for an hour, after which 80 μl of the mixture was transferred to the HuHtrA1-coated wells for 15 minutes to capture unbound phage. The plate was washed with PBT buffer, and HRP-conjugated anti-M13 (Amersham Pharmacia Biotech) was added (1:5000 in PBST buffer) for one hour. The plate was washed with PBT buffer and developed by adding tetramethylbenzidine substrate (Kirkegaard and Perry Laboratories, Gaithersburg, Md.). The absorbance at 450 nm was plotted as a function of HuHtrA1 or MuHtrA1 concentration in solution to determine phage IC₅₀.

[7] = molecular target: T7, Full length human HtrA1 (HuHtrA1) …; experiment: SPR (BIAcore T100), single-cycle kinetics, biotinylated human HtrA1 captured on streptavidin, Fab in solution
Description: as §1, §2

[8] = molecular target: T8, Full length murine HtrA1 (MuHtrA1) …; experiment: phage competition ELISA: Fab-phage pre-incubated with serially diluted soluble MuHtrA1 (x axis), unbound phage captured on HuHtrA1-coated plate
Method: as §3

Row | Binder | fold reduction in binding (alanine mutant) (HuHtrA1_PD(H220A)) [fold] | fold reduction in binding (alanine mutant) (HuHtrA1_PD(E247A)) [fold] | fold reduction in binding (alanine mutant) (HuHtrA1_PD(K243A)) [fold] | fold reduction in binding (alanine mutant) (HuHtrA1_PD(V201A)) [fold] | fold reduction in binding (alanine mutant) (HuHtrA1_PD(T223A)) [fold] | fold reduction in binding (alanine mutant) (HuHtrA1_PD(K225A)) [fold] | IC50, inhibition of BODIPY FL casein hydrolysis [1] [nM] | IC50, inhibition of H2-Opt peptide hydrolysis (FRET assay) [1] [nM] | fold increase in inhibitory potency of IgG94 vs. Fab94 [1] [fold] | IC50, inhibition of BODIPY FL casein hydrolysis [2] [nM] | IC50, inhibition of H2-Opt hydrolysis (FRET assay, 1.0 nM HuHtrA1) [3] [nM] | IC50, inhibition of H2-Opt hydrolysis (FRET assay, 1.5 nM HuHtrA1_PD) [4] [nM] | Kd [5] [nM] | koff [5] [s⁻¹] | kon [5] [M⁻¹ s⁻¹] | IC50 (read off the curve) [6] [nM] | Kd [7] [nM] | koff [7] [s⁻¹] | kon [7] [M⁻¹ s⁻¹] | IC50 (read off the curve) [8] [nM]
1 | B1 | ≥ 5 | ≥ 5 | ≥ 5 | ≥ 5 | ≥ 5 | ≥ 5 | 8.3 | 1.8 | ~16 | 5.4 | – | – | – | – | – | – | – | – | – | –
2 | B2 | – | – | – | – | – | – | – | – | – | – | 0.335 | 0.229 | – | – | – | – | – | – | – | –
3 | B3 | – | – | – | – | – | – | – | – | – | – | – | – | 58 | 0.0856 | 1.48e+06 | ~6 | 55 | 0.0448 | 813000 | –
4 | B4 | – | – | – | – | – | – | – | – | – | – | – | – | 1.6 | 0.00455 | 2.82e+06 | ~0.5 | 2.6 | 0.00784 | 2.97e+06 | ~2
5 | B5 | – | – | – | – | – | – | – | – | – | – | 1.95 | 2.03 | 4.6 | 0.0093 | 2.02e+06 | – | 3.4 | 0.00574 | 1.69e+06 | –
